B1: Insulin-induced gene 2 protein (Homo sapiens), Q9Y5U4 (parent)
chain: MAEGETESPGPKKCGPYISSVTSQSVNLMIRGVVLFFIGVFLALVLNLLQIQRNVTLFPPDVIASIFSSAWWVPPCCGTASAVIGLLYPCIDRHLGEPHKFKREWSSVMRCVAVFVGINHASAKVDFDNNIQLSLTLAALSIGLWWTFDRSRSGFGLGVGIAFLATVVTQLLVYNGVYQYTSPDFLYVRSWLPCIFFAGGITMGNIGRQLAMYECKVIAEKSHQE
partner: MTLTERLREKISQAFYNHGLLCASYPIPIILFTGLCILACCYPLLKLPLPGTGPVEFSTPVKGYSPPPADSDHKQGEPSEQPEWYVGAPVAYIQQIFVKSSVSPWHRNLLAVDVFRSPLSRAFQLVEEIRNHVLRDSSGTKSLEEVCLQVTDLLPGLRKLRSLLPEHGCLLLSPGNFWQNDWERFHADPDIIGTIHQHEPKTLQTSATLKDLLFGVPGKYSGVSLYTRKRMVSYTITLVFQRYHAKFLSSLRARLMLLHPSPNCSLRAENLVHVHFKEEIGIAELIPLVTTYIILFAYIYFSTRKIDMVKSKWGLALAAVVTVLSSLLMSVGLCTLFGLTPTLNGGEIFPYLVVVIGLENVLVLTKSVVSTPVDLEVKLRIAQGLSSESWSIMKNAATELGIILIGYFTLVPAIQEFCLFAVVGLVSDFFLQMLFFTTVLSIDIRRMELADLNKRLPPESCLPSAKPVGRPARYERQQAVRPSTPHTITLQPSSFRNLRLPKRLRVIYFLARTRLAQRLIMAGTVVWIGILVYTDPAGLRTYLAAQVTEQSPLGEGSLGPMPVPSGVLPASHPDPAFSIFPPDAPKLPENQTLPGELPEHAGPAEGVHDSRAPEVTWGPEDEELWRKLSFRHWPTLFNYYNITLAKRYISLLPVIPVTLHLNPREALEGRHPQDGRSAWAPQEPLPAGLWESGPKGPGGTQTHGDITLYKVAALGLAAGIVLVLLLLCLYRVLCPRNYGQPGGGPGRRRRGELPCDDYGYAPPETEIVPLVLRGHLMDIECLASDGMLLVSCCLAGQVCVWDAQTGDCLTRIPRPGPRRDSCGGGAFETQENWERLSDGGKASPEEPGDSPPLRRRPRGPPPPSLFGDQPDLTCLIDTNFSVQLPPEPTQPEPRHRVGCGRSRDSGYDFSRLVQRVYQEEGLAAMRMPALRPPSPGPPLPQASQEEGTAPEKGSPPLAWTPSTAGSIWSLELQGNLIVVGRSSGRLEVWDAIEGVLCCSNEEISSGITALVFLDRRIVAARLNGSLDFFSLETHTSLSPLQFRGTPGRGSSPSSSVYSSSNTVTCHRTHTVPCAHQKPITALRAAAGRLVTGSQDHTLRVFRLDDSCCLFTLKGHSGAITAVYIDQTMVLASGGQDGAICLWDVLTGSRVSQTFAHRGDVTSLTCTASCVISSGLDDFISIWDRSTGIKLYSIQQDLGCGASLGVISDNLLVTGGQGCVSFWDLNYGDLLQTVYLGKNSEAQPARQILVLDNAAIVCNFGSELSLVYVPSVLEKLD

Variants of: B1
Details: with scap_mouse Scap

Variant | effect of a mutation on the interaction
G39F | decreasing interaction strength
N47A;Q50F;N119F | decreasing interaction strength
C77D | decreasing interaction strength
A113W | disrupting interaction strength
F115A | disrupting interaction strength
G117F | decreasing interaction strength
H120F | disrupting interaction strength
Q132A | decreasing interaction strength
W145A | disrupting interaction strength
D149A | disrupting interaction strength
G200F | decreasing interaction strength
M203W | decreasing interaction strength
